{"source": "patent WO2006089678A2", "about": "(dated 2006)", "key": {"[1]": {"molecular_target": "T1, target epitope BSA conjugated peptide (HIV-1, conjugated to BSA)", "T1 construct": "also called peptide conjugated to BSA", "assay": "ELISA, BSA-conjugated peptide coated on plates, HRP rabbit anti-human IgG, luminescence"}, "[2]": {"molecular_target": "T2, Tat, excreted regulatory protein encoded by HIV-1 (HIV-1 IIIB, in infected Jurkat cells) (HIV-1 IIIB, UniProt P04610 1-86)", "T2 sequence": "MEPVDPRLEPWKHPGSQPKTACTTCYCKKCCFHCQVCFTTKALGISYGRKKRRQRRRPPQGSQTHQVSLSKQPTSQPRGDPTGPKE", "assay": "cell-based or functional assay"}}, "data": [{"binder": "n-CoDeR ® anti-Tat antibody (antibody, V domains shown, Human IgG1 lambda, expressed in CHO cells; also called fully human recombinant IgG1 antibody from the n-CoDeR phage display library) VH: EVQLLESGGGLVQPGGSLRLSCAASGFTFDDYGMAWVRQAPGKGLEWVSGVSWNGSRTHYADSVKGRFTISRDNSKNTLYLQMNSLRAEDTAVYYCARGVAGHDYWGQGTLVTVSS VL: QSVLTQPPSASGTPGQRVTISCSGSRSNIGSHYVFWYQQLPGTAPKLLIYDNNKRPSGVPDRFSGSKSGTSASLAISGLRSEDEADYYCAAWDGSLSGHVVFGGGTKLTVLG", "values": [{"measurement": "EC50", "setting": "[1]", "result": 0.7, "unit": "nM"}, {"measurement": "IC50 of inhibition of HIV-1 replication, 1 % initially HIV-1 IIIB infected Jurkat cells, p24 ELISA", "setting": "[2]", "result": 0.05, "unit": "µg/mL"}, {"measurement": "IC50 of inhibition of HIV-1 replication, 3 % initially HIV-1 IIIB infected Jurkat cells, p24 ELISA", "setting": "[2]", "result": 0.07, "unit": "µg/mL"}]}]}
